Assay results as given in FireProtDB (doi:10.1002/pro.381).

Settings: Kitasatospora aureofaciens, pH 7, CD, MOPS 30 mM, whole UniProt chain shown; for denaturant m value / denaturant midpoint (higher = more stable) / unfolding free energy: 25 °C

B1: Guanyl-specific ribonuclease Sa wild type, P05798 (protein)
chain: DVSGTVCLSALPPEATDTLNLIASDGPFPYSQDGVVFQNRESVLPTQSYGYYHEYTVITPGARTRGTRRIITGEATQEDYYTGDHYATFSLIDQTC
- denaturant m value (GdnHCl): 2.43 kcal/mol/M
- denaturant midpoint (higher = more stable) (GdnHCl): 2.99 M
- unfolding free energy (GdnHCl): 7.3 kcal/mol
- denaturant m value (Urea): 0.96 kcal/mol/M
- denaturant midpoint (higher = more stable) (Urea): 6.06 M
- unfolding free energy (Urea): 5.8 kcal/mol
- Tm (Thermal): 49.3 °C
- heat capacity change of unfolding (Thermal): 1.52 kcal/mol/K
- unfolding enthalpy (van 't Hoff) (Thermal): 93 kcal/mol
